The target in the test is T1, native Nodal protein in LCP, A375 and WM266 melanoma cells (Homo sapiens, UniProt Q96S42).
T1 construct: recognize the endogenous forms of Nodal protein in human melanoma cells; endogenous in cells; host or cells: human melanoma lines PES, A-375, SK-MEL, WM 266, LCM (blot); LCP, A375, WM266 (FACS)
T1 sequence (Q96S42 238-347): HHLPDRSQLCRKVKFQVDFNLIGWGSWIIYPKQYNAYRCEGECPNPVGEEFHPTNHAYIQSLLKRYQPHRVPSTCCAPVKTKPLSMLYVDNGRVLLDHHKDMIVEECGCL
As to the kind of experiment: FACS staining of Nodal in fixed and permeabilized human melanoma cell lines with 3D1. The class given is binding. Particulars: 0.1-2.0 μg/mL, dose-dependent. Here is the method: LCP, A375 and WM266 melanoma cells were collected by centrifugation. After aspiration of supernatant, the cells were resuspended in 500 μL of PBS and formaldehyde was added to obtain a final concentration of 4%. Cells were fixed for 10 min at room temperature. After fixation, cells were permeabilized by adding 500 μL of PBS-Tween 20. 1×10^6 cells were aliquoted into each vial; 1 mL of PBS (incubation buffer) was added to each vial and cells were washed by centrifugation at 4000 rpm for 5 min at 4° C. Cells were resuspended in 100 μL of solution of 3D1 anti-Nodal antibody (primary antibody), diluted in PBS at the following concentrations: 0.1, 0.5, 1.0 and 2.0 μg/mL. A standard IgG1 isotype was used as negative control. Cells were incubated with the primary antibody for 1 h at 4° C. under shaking. After incubation, cells were washed by centrifugation in 1 mL of PBS, resuspended and incubated with a FITC-conjugated anti-mouse antibody (secondary antibody), diluted 1:1000 (1.0 μg/mL) in PBS, for 40 min at 4° C. in the dark under stirring. Cells were washed by centrifugation with 1 mL of incubation buffer, re-suspended in […] and analyzed on flow cytometer. Fluorescence was evaluated using the BD FACScalibur System.

B1: 3D1: mouse monoclonal anti-Nodal antibody raised against hNodal(44-67); light chain SEQ ID NO:1, heavy chains SEQ ID NO:2 and 3 (protein)
light: DIKMTQSPASLSASVGETVTITCRASGNIHNYLAWYQQKQGKSPQLLVYNAKTLADGVPSRFSGSGSGTQYSLKINSLQPEDFGSYYCQHFWSTPHVRCWDQAGTETEAW
heavy 1: VKLVESGGGLVKPGGSLKLSCAASGFTFSSYAMSWVRQTPEKRLEWVASISSGGCTYYPDSVKGRFTISRDNARNILYLQMSSLRSEDTAMYYCARGSMITADGNSLLLCYGLLGSRNLXHR
heavy 2: VKLVESGGGLVQPGGSMKLSCVASGFTFRNYWMSWVRQSPEKGLEWVAEIRLKSDNYAARYAESVKGKFTISRDDSKSRLYLQMNSLRAEDTGIYYCTGIRRFAYWGQGTL
modifications: not fully specified; (120)..(120) Xaa can be any naturally occurring amino acid
Turning to B1, the “binding to native Nodal protein in cells (FACS)” value is recorded as “bound native Nodal protein also in intact cells at very low concentrations”.

Source of the values: patent US10508147B2, “Anti-nodal antibodies and methods of using same” (ANN AND ROBERT H. LURIE CHILDREN'S HOSPITAL OF CHICAGO, priority 2014, dated 2019).
